From patent US20210155689A1 (SHANGHAI PHARMAEXPLORER, published 2021)

B1: 405B8H3 (mouse antibody purified from hybridoma) (antibody, V domains shown)
VH: QVQLQQSGAELVRPGASVTLSCKASGYTFTDYEMHWVKQTPVHGLEWIGATDPETGNSAYNQKFKGKAIMTADKSSSTAYMELRSLTSEDSAVYYCISTGWNDWGQGTSLTVSS
VL: DIKMTQSPSSMYASLGERVTITCKASQDINSYLSWFQQKPGKSPKTLIYRADRLLDGVPSRFSGSGSGQDYSLTISSLEYGDMGIYYCLQYDEFPYTFGGGTKLEIK
notes: also called mAb103-405B8H3; 405B81-13
B2: 405B8H3 (LAG-3 mouse-human chimeric antibody) (antibody, V domains shown)
VH: QVQLQQSGAELVRPGASVTLSCKASGYTFTDYEMHWVKQTPVHGLEWIGATDPETGNSAYNQKFKGKAIMTADKSSSTAYMELRSLTSEDSAVYYCISTGWNDWGQGTSLTVSS
VL: DIKMTQSPSSMYASLGERVTITCKASQDINSYLSWFQQKPGKSPKTLIYRADRLLDGVPSRFSGSGSGQDYSLTISSLEYGDMGIYYCLQYDEFPYTFGGGTKLEIK
notes: also called mouse-human chimeric antibody 405B8H3
B3: 105F1E10 (mouse antibody purified from hybridoma) (antibody, V domains shown)
VH: EVQLQQSGPELVKPGASVKMSCRASGYTFTDFKMHWMKQSHGKSLEWIGYIAPNNGGTAYNQKFRGKATLTVNESSNTAYMELRSLTSEDSAVYYCVDWDDVDYWGQGTTLTVSS
VL: DIKMTQSPSSMYASLGERVTITCKASQDINSYLSWFQQKSGKSPKTLIYRANRLVDGVPSRFSGSGSGQDYSLTISSLEYEDMGIYYCLQYVEFPLTFGAGTKLELK
notes: also called mAb009-105F1E10
B4: 105F1E10 (LAG-3 mouse-human chimeric antibody) (antibody, V domains shown)
VH: EVQLQQSGPELVKPGASVKMSCRASGYTFTDFKMHWMKQSHGKSLEWIGYIAPNNGGTAYNQKFRGKATLTVNESSNTAYMELRSLTSEDSAVYYCVDWDDVDYWGQGTTLTVSS
VL: DIKMTQSPSSMYASLGERVTITCKASQDINSYLSWFQQKSGKSPKTLIYRANRLVDGVPSRFSGSGSGQDYSLTISSLEYEDMGIYYCLQYVEFPLTFGAGTKLELK
B5: 409B11E12 (mouse antibody purified from hybridoma) (antibody, V domains shown)
VH: QVQLQQSGAELVRPGASVTLSCKASGYTFTDYEMHWVKQTTVHGLEWIGATDPETSYSAYNQKFKGKAILTADKSSSTAYMELRSLTSEDSAVYYCIATGWNDWGQGTSLTVSS
VL: DLKMTQSPSSMYASLGERVTITCKASQDINSYLSWFQQKPGKSPKTLIYRANRLLDGVPSRFSGSGSGQDYSLTISSLEYEDMGIYYCLQYDEFPYTFGGGTKLEIK
notes: also called mAb104-409B11E12
B6: 409B11E12 (LAG-3 mouse-human chimeric antibody) (antibody, V domains shown)
VH: QVQLQQSGAELVRPGASVTLSCKASGYTFTDYEMHWVKQTTVHGLEWIGATDPETSYSAYNQKFKGKAILTADKSSSTAYMELRSLTSEDSAVYYCIATGWNDWGQGTSLTVSS
VL: DLKMTQSPSSMYASLGERVTITCKASQDINSYLSWFQQKPGKSPKTLIYRANRLLDGVPSRFSGSGSGQDYSLTISSLEYEDMGIYYCLQYDEFPYTFGGGTKLEIK
B7: 409D4E10 (mouse antibody purified from hybridoma) (antibody, V domains shown)
VH: QVQLQQSGAELVRPGASVTLSCKASGNTFTDYEMHWVKQTPVHGLEWIGATDPETDNTAYNQKFKGKAILTTDKSSSTAYMELRSLTSEDSAVYYCITSGWNDWGQGTSLTVSS
VL: DIKMTQSPSSMYASLGERVTITCKASQDINSYLSWFQQKPGKSPKTLIYRANRLLDGVPSRFSGSGSGQDYSLTISSLEYEDMGIYYCLQYNEFPYTFGGGTKLEIK
notes: also called mAb112-409D4E10
B8: 409D4E10 (LAG-3 mouse-human chimeric antibody) (antibody, V domains shown)
VH: QVQLQQSGAELVRPGASVTLSCKASGNTFTDYEMHWVKQTPVHGLEWIGATDPETDNTAYNQKFKGKAILTTDKSSSTAYMELRSLTSEDSAVYYCITSGWNDWGQGTSLTVSS
VL: DIKMTQSPSSMYASLGERVTITCKASQDINSYLSWFQQKPGKSPKTLIYRANRLLDGVPSRFSGSGSGQDYSLTISSLEYEDMGIYYCLQYNEFPYTFGGGTKLEIK
B9: 556F6B8 mouse-human chimeric antibody (antibody, V domains shown)
VH: RVQLKQSGPGLVQPSQSLSITCTVSGFSLIKYGVHWVRQSPGEGLEWLGVIWRGGITDYNAAFMSRLSITKDNSKSQVFFKMNSLQADDTAIYYCAKWDGPLAMDYWGQGTSVTVSS
VL: DIVMTQSHKFLSTSVGDRVSITCKASQDVGTTVAWYQQKPGQSPKLLIYWASTRHTGVPDRFTGSGSGTDFTLTISNVQSEDLADYFCQQYSSYPYTFGGGTKLEIK
notes: also called mAb123-556F6B8; 556F8B8
B10: 556F6B8 (mouse antibody purified from hybridoma) (antibody, V domains shown)
VH: RVQLKQSGPGLVQPSQSLSITCTVSGFSLIKYGVHWVRQSPGEGLEWLGVIWRGGITDYNAAFMSRLSITKDNSKSQVFFKMNSLQADDTAIYYCAKWDGPLAMDYWGQGTSVTVSS
VL: DIVMTQSHKFLSTSVGDRVSITCKASQDVGTTVAWYQQKPGQSPKLLIYWASTRHTGVPDRFTGSGSGTDFTLTISNVQSEDLADYFCQQYSSYPYTFGGGTKLEIK
notes: also called mAb123-556F6B8
B11: 556F6B8 (LAG-3 mouse-human chimeric antibody) (antibody, V domains shown)
VH: RVQLKQSGPGLVQPSQSLSITCTVSGFSLIKYGVHWVRQSPGEGLEWLGVIWRGGITDYNAAFMSRLSITKDNSKSQVFFKMNSLQADDTAIYYCAKWDGPLAMDYWGQGTSVTVSS
VL: DIVMTQSHKFLSTSVGDRVSITCKASQDVGTTVAWYQQKPGQSPKLLIYWASTRHTGVPDRFTGSGSGTDFTLTISNVQSEDLADYFCQQYSSYPYTFGGGTKLEIK
notes: also called 556F8B8

What was measured:
[1] = molecular target: T1, monkey LAG-3 (full length, on the cell surface) (monkey, UniProt P18627 24-525 (human entry)); assay: FACS, HEK293-cLAG-3; 0.000 nM
T1 construct: also called HEK293-cLAG-3; monkey LAG-3 protein on the cell surface
T1 chain: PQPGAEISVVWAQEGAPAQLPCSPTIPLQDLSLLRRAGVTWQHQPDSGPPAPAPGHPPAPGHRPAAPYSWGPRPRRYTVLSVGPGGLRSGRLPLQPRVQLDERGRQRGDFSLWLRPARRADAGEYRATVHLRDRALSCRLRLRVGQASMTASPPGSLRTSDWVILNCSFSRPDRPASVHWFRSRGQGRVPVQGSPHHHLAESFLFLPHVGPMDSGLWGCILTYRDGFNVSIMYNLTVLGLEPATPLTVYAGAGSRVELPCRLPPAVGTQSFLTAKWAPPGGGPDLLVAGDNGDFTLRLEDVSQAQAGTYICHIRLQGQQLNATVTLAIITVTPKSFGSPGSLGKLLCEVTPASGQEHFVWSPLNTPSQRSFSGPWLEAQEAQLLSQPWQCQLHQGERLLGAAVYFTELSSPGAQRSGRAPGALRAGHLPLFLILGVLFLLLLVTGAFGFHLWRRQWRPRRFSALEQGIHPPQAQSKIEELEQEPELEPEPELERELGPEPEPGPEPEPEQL
Description: (§1) The pIRES plasmid with the monkey-derived full-length gene was transfected into the HEK293 cell line to construct a HEK293 stable cell line containing monkey LAG-3 (herein referred to as HEK293-cLAG-3 stable cell line). The HEK293-hLAG-3 stable cell line and HEK293-cLAG-3 stable cell line were expanded in a T-75 cell culture flask to a 90% confluence. The medium was aspirated, and the cells were washed with HBSS (Hanks' Balanced Salt Solution) 1-2 times, then treated with a enzyme-free cell dissociation fluid (Versene solution: Life technology) and the cells were collected. The cells were washed with HBSS buffer for 1-2 times. After counted, the cells were diluted with HBSS to 1-2×10⁶ cells per ml, added with 1% goat serum blocking solution, incubated on ice for 20-30 minutes, and then washed with HBSS for 2 times by centrifugation. The collected cells were suspended in the FACS buffer (HBSS+1% BSA) to 2×10⁶ cells/ml, added as 100 microliters per well to a 96-well FACS reaction plate, added with 100 microliters per well of the antibody sample to be tested, incubated on ice for 1-2 hours. The plate was washed twice with the FACS buffer by centrifugation, added with 100 microliters of fluorescent (Alexa 488)-labeled secondary antibodies per well, and incubated on ice for 0.5-1.0 hours. The plate was washed 2-3 times with FACS buffer by centrifugation, added with 100 μl fixative solution (4% Paraformaldehyde) per well to suspend the cells. 5-10 minutes later, it was washed 1-2 times with FACS buffer by centrifugation. The cells were suspended with 100 microliters of FACS buffer, FACS (FACSCalibur, BD) was used for detection and the results were analyzed.

[2] = molecular target: T1, monkey LAG-3 (full length, on the cell …); assay: FACS, HEK293-cLAG-3; 1.600 nM
Description: as §1

[3] = molecular target: T2, hFc tagged monkey LAG-3 protein (cLAG-3-hFc protein) (monkey; human); assay: ELISA, cLAG-3-hFc coated; 66.6670 nM
T2 construct: Made in HEK293 cells; also called monkey LAG-3 extracellular domain protein; not shown: human IgG Fc fragment (hFc) of the pCpC vector
T2 chain: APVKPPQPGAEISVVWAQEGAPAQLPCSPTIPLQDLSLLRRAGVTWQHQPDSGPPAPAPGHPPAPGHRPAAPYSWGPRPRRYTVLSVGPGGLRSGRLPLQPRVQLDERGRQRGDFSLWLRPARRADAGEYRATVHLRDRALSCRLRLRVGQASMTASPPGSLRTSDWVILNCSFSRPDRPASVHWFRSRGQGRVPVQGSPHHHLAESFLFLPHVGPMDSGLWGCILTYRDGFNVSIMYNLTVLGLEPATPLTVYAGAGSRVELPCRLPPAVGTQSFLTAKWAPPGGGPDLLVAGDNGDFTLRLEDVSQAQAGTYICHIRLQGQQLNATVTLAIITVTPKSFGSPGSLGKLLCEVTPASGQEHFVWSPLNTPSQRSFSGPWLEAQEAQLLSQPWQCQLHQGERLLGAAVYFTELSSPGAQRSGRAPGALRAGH
Method: The plate was sealed with plastic film and incubated overnight at 4° C. The plate was washed 2 times with the plate washing solution (PBS+0.01% Tween20) on the next day, and added with the blocking solution (PBS+0.01% Tween20+1% BSA) and blocked at room temperature for 1-2 hours. The blocking solution was poured out, and the plate was added with 50-100 μl of the antibody sample to be tested to each well, incubated at 37° C. for 1-2 hours, and washed 2-3 times with a plate washing solution (PBS+0.01% Tween20). HRP (horseradish peroxidase) labeled secondary antibody was added, and the plate was incubated at 37° C. for 1-2 hours, and washed 2-3 times with a plate washing solution (PBS+0.01% Tween20). 100 μl of TMB substrate was added to each well. After incubated at room temperature for 15-30 minutes, the plate was added with 100 μl of stop solution (1.0N HCl) to each well.

[4] = molecular target: T3, monkey LAG-3 on cells (HEK293-cLAG-3 stable cell line) (monkey, UniProt P18627 24-525 (human entry)); assay: FACS, HEK293-cLAG-3, antibody 0.000 nM
T3 construct: Full-length monkey (Chinese monkey) LAG-3 gene expressed on HEK293 cells
T3 chain: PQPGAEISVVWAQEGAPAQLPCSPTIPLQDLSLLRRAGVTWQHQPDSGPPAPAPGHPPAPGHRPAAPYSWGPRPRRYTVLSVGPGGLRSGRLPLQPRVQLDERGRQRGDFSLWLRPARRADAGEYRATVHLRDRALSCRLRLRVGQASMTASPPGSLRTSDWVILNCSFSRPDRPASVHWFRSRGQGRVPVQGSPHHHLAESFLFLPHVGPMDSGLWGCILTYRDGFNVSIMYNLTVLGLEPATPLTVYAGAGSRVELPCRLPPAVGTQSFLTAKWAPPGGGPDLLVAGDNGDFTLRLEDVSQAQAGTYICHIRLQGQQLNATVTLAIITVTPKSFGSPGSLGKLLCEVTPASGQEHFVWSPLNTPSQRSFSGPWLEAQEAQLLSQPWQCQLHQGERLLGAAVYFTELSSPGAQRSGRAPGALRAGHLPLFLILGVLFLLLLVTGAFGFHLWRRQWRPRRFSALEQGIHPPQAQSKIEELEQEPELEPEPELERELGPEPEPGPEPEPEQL
Description: as §1

[5] = molecular target: T4, human LAG-3 on cells (HEK293-hLAG-3 stable cell line) (human, UniProt P18627 23-525); assay: FACS, HEK293-hLAG-3, antibody 0.320 nM
T4 sequence: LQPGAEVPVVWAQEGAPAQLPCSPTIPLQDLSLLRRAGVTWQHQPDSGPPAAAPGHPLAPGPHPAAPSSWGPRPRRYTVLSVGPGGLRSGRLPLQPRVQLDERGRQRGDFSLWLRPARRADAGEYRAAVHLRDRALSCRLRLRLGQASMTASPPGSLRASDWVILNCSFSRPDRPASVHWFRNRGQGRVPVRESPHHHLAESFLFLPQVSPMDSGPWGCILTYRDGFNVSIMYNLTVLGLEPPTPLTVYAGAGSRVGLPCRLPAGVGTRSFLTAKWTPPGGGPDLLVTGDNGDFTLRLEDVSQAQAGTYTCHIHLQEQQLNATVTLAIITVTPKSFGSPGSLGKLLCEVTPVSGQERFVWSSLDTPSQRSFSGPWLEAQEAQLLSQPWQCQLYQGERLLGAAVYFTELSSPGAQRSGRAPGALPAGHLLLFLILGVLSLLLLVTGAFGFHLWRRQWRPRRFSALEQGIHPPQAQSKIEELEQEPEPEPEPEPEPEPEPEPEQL
Description: as §1

Binder	Mean fluorescence intensity [1] [MFI]	Mean fluorescence intensity [2] [MFI]	OD450 [3] [OD450]	other results
B1	3.9	23	–	–
B2	–	–	3.46	–
B3	3.9	15.4	–	–
B4	–	–	3.59	–
B5	3	24.4	–	–
B6	–	–	3.44	–
B7	3	36.1	–	–
B8	–	–	3.77	–
B9	–	–	–	Mean fluorescence intensity [4]: 3.1; Mean fluorescence intensity [5]: 14.3
B10	3.4	24.2	–	–
B11	–	–	3.72	–
